Source: article PMC3688267 (Nature structural & molecular biology, 2011)

T1: human RAP1RCT (RAP1 C-terminal RCT domain, residues 303-399) (human, UniProt Q9NYB0 303-399)
T1 sequence (looked up): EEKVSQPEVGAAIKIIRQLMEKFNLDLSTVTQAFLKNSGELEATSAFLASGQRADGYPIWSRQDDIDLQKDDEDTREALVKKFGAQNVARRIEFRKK

T2: S. cerevisiae ScRap1RCT (ScRap1 residues 679-827) (S. cerevisiae, UniProt P11938 679-827)
T2 sequence (looked up): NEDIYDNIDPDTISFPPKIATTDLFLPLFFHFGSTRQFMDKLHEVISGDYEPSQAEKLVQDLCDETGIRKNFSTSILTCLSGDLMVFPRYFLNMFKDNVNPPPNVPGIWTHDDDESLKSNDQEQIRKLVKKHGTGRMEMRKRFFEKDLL

T3: SpRap1RCT V651R (S. pombe, UniProt Q96TL7 639-693, V651R)
T3 sequence (looked up): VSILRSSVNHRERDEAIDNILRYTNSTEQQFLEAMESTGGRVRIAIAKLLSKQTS

T4: S. pombe SpRap1RCT (SpRap1 residues 639-693) (S. pombe, UniProt Q96TL7 639-693)
T4 sequence (looked up): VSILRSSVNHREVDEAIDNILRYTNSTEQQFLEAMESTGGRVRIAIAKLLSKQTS


Key:
Assay in all cases: ITC
[1] = molecular target: T1, human RAP1RCT (RAP1 C-terminal RCT …)
[2] = molecular target: T2, S. cerevisiae ScRap1RCT (ScRap1 …)
SpRap1RCT V651R = molecular target: T3, SpRap1RCT V651R
[3] = molecular target: T4, S. pombe SpRap1RCT (SpRap1 residues …)

Kd [1]	binding result [3]	Binder	further results
0.0165 µM		QLRNPPTTIGMMTLKAAFKTLSGAQDSEAAFAKLDQKDLVLP (domain or fragment) [human TRF2RBM (RAP1-binding motif, TRF2 residues 275-316)]	
		EKGNAKMIDFATLSKLKKKYQIILDR (peptide, UniProt P06701 456-481, looked up) [S. cerevisiae Sir3RBM (Sir3 residues 456-481)]	Kd [2]: ~1.8 µM
		LSVKGMLYDSDSQQILNRLRERVSGSTAQSAD (domain or fragment, UniProt P79005 365-396, looked up) [S. pombe Taz1RBM (Taz1 residues 365-396)]	binding result (SpRap1RCT V651R): binds; Kd [3]: 2 µM
	binds	LSVKGMLYDSDSQQIRNRLRERVSGSTAQSAD (domain or fragment, S. pombe, UniProt P79005 365-396, looked up) [Taz1RBM L380R]	
	binds	LSVKGMLYDSDSQQILNRLRERRSGSTAQSAD (domain or fragment, S. pombe, UniProt P79005 365-396, looked up) [Taz1RBM V387R]	
0.0239 µM		full-length TRF2 protein (natural protein) MAGGGGSSDGSGRAAGRRASRSSGRARRGRHEPGLGGPAERGAGEARLEEAVNRWVLKFYFHEALRAFRGSRYGDFRQIRDIMQALLVRPLGKEHTVSRLLRVMQCLSRIEEGENLDCSFDMEAELTPLESAINVLEMIKTEFTLTEAVVESSRKLVKEAAVIICIKNKEFEKASKILKKHMSKDPTTQKLRNDLLNIIREKNLAHPVIQNFSYETFQQKMLRFLESHLDDAEPYLLTMAKKALKSESAASSTGKEDKQPAPGPVEKPPREPARQLRNPPTTIGMMTLKAAFKTLSGAQDSEAAFAKLDQKDLVLPTQALPASPALKNKRPRKDENESSAPADGEGGSELQPKNKRMTISRLVLEEDSQSTEPSAGLNSSQEAASAPPSKPTVLNQPLPGEKNPKVPKGKWNSSNGVEEKETWVEEDELFQVQAAPDEDSTTNITKKQKWTVEESEWVKAGVQKYGEGNWAAISKNYPFVNRTAVMIKDRWRTMKRLGMN	
